Data published in the RNAGym collection of RNA variant scans (doi:10.7554/elife.80360).

B1: Hairpin Ribozyme (parent)
chain: GUCCUCUUUCACGUGCGCGUGAAAGAGAGAAGUGAACCAGAGAAACACACGUUGUGGUAUAUUACCUGGUA

Variants of: B1
Test: self-cleavage, relative activity (ratio to wild type); higher = more cleavage; co-transcriptional

Compared with GUCCUCUUUCACGUGCGCGUGAAAGACAGAAGUGAACCAGAGAAACACACGCUGUGGUAUAUUACCUGGUA, GUCCUCUUUCACGUGCGCGUGAAAGACAGAAGUGAACCAGAGAAACACACGGUGUGGUAUAUUACCUGGUA is lower in self-cleavage: 0.22 for the first, 0.163 for the second.

First: GUCCUCUUUCACGUGCGCGUGAAAGACAGAAGUGAACCAGAGAAACACACGUCGUGGUAUAUUACCUGGUA
Second: GUCCUCUUUCACGUGCGCGUGAAAGACAGAAGUGAACCAGAGAAACACACGUUGAGGUAUAUUACCUGGUA
The self-cleavage of the first is higher: 0.318 for the first, 0.156 for the second.

Compared with GUCCUCUUUCACGUGCGCGUGAAAGACAGAAGUGAACCAGAGAAACACACGUUGGGGUAUAUUACCUGGUA, GUCCUCUUUCACGUGCGCGUGAAAGACAGAAGUGAACCAGAGAAACACACGUUGUGGUACAUUACCUGGUA is higher in self-cleavage: 0.113 for the first, 0.333 for the second.

Going from GUCCUCUUUCACGUGCGCGUGAAAGACAGAAGUGAACCAGAGAAACACACGUUGUGGUAUAUUACCGGGUA to GUCCUCUUUCACGUGCGCGUGAAAGAUAGAAGUGAACCAGAGAAACACACGUUGUGGUAUAUUACCUGGUA, the self-cleavage rises from 0.0952 to 0.282.

Compared with GUCCUCUUUCACGUGCGCGUGAAAGAUUGAAGUGAACCAGAGAAACACACGUUGUGGUAUAUUACCUGGUA, GUCCUCUUUCACGUGCGCGUGAAAGAUAGUAGUGAACCAGAGAAACACACGUUGUGGUAUAUUACCUGGUA is lower in self-cleavage: 0.148 for the first, 0.116 for the second.

First: GUCCUCUUUCACGUGCGCGUGAAAGAUAGACGUGAACCAGAGAAACACACGUUGUGGUAUAUUACCUGGUA
Second: GUCCUCUUUCACGUGCGCGUGAAAGAUAGAUGUGAACCAGAGAAACACACGUUGUGGUAUAUUACCUGGUA
The self-cleavage of the first is higher: 0.205 for the first, 0.119 for the second.

Compared with GUCCUCUUUCACGUGCGCGUGAAAGAUAGAAGUGCACCAGAGAAACACACGUUGUGGUAUAUUACCUGGUA, GUCCUCUUUCACGUGCGCGUGAAAGAUAGAAGUGUACCAGAGAAACACACGUUGUGGUAUAUUACCUGGUA is lower in self-cleavage: 0.44 for the first, 0.203 for the second.

First: GUCCUCUUUCACGUGCGCGUGAAAGAUAGAAGUGACCCAGAGAAACACACGUUGUGGUAUAUUACCUGGUA
Second: GUCCUCUUUCACGUGCGCGUGAAAGAUAGAAGUGAGCCAGAGAAACACACGUUGUGGUAUAUUACCUGGUA
The self-cleavage of the first is lower: 0.0992 for the first, 0.393 for the second.

First: GUCCUCUUUCACGUGCGCGUGAAAGAUAGAAGUGAUCCAGAGAAACACACGUUGUGGUAUAUUACCUGGUA
Second: GUCCUCUUUCACGUGCGCGUGAAAGAUAGAAGUGAACCGGAGAAACACACGUUGUGGUAUAUUACCUGGUA
The self-cleavage of the first is lower: 0.0647 for the first, 0.149 for the second.

First: GUCCUCUUUCACGUGCGCGUGAAAGAUAGAAGUGAACCAGAGAAACUCACGUUGUGGUAUAUUACCUGGUA
Second: GUCCUCUUUCACGUGCGCGUGAAAGAUAGAAGUGAACCAGAGAAACACGCGUUGUGGUAUAUUACCUGGUA
The self-cleavage of the first is lower: 0.192 for the first, 0.214 for the second.

Compared with GUCCUCUUUCACGUGCGCGUGAAAGAUAGAAGUGAACCAGAGAAACACACGUUGUGGUUUAUUACCUGGUA, GUCCUCUUUCACGUGCGCGUGAAAGAUAGAAGUGAACCAGAGAAACACACGUUGUGGUAUGUUACCUGGUA is higher in self-cleavage: 0.146 for the first, 0.171 for the second.

Compared with GUCCUCUUUCACGUGCGCGUGAAAGAUAGAAGUGAACCAGAGAAACACACGUUGUGGUAUUUUACCUGGUA, GUCCUCUUUCACGUGCGCGUGAAAGAUAGAAGUGAACCAGAGAAACACACGUUGUGGUAUAUUGCCUGGUA is higher in self-cleavage: 0.107 for the first, 0.205 for the second.

Going from GUCCUCUUUCACGUGCGCGUGAAAGAUAGAAGUGAAGCAGAGAAACACACGUUGUGGUAUAUUACCUGGUA to GUCCUCUUUCACGUGCGCGUGAAAGAUAGAAGUGAAUCAGAGAAACACACGUUGUGGUAUAUUACCUGGUA, the self-cleavage rises from 0.109 to 0.22.

First: GUCCUCUUUCACGUGCGCGUGAAAGAUAGAAGUGAACAAGAGAAACACACGUUGUGGUAUAUUACCUGGUA
Second: GUCCUCUUUCACGUGCGCGUGAAAGAUAGAAGUGAACGAGAGAAACACACGUUGUGGUAUAUUACCUGGUA
The self-cleavage of the first is lower: 0.12 for the first, 0.17 for the second.

First: GUCCUCUUUCACGUGCGCGUGAAAGAUAGAAGUGAACCAGAGAAACAUACGUUGUGGUAUAUUACCUGGUA
Second: GUCCUCUUUCACGUGCGCGUGAAAGAUAGAAGUGAACCAGAGAAACACAGGUUGUGGUAUAUUACCUGGUA
The self-cleavage of the first is lower: 0.099 for the first, 0.175 for the second.

First: GUCCUCUUUCACGUGCGCGUGAAAGAUAGAAGUGAACCAGAGAAACACAUGUUGUGGUAUAUUACCUGGUA
Second: GUCCUCUUUCACGUGCGCGUGAAAGAUAGAAGUGAACCAGAGAAACACACGUUGUGGUAUAUUAGCUGGUA
The self-cleavage of the first is higher: 0.214 for the first, 0.188 for the second.

Going from GUCCUCUUUCACGUGCGCGUGAAAGAUAGAAGUGAACCAGAGAAACACACGUUGUGGUAUAUUAUCUGGUA to GUCCUCUUUCACGUGCGCGUGAAAGAUAGAAGUGAACCAGAGAAACACACGUUGUGGUAUAUUACAUGGUA, the self-cleavage rises from 0.125 to 0.169.

Compared with GUCCUCUUUCACGUGCGCGUGAAAGAUAGAACUGAACCAGAGAAACACACGUUGUGGUAUAUUACCUGGUA, GUCCUCUUUCACGUGCGCGUGAAAGAUAGAAGUCAACCAGAGAAACACACGUUGUGGUAUAUUACCUGGUA is higher in self-cleavage: 0.129 for the first, 1.16 for the second.

Compared with GUCCUCUUUCACGUGCGCGUGAAAGAUAGAAGUGAACCAAAGAAACACACGUUGUGGUAUAUUACCUGGUA, GUCCUCUUUCACGUGCGCGUGAAAGAUAGAAGUGAACCAGAUAAACACACGUUGUGGUAUAUUACCUGGUA is higher in self-cleavage: 0.117 for the first, 0.188 for the second.
